This note sets out measurements from paper PMC10085042 (PLOS ONE, 2023).

The series “crystal structure” concerns the molecule itself. Nature of the series: crystal structure.
A further series has as its target T1, SARS-CoV-2 nsp9 (SARS-CoV-2, UniProt P0DTD1).
T1 construct: also called nsp9_(COV19); Nsp9_(COV19)
Nature of the series: crystal structure. The conditions noted are these: both partners purified.

B1: SARS-CoV-2 nsp9 (natural protein, UniProt P0DTD1 4141-4253, looked up)
chain: NNELSPVALRQMSCAAGTTQTACTDDNALAYYNTTKGGRFVLALLSDLQDLKWARFPKSDGTGTIYTELEPPCRFVTDTPKGPKVKYLYFIKGLNNLNRGMVLGSLAATVRLQ
notes: also called nsp9_(COV19); Nsp9_(COV19)
Turning to B1, the binding result in “crystal structure” is on record as “binds”.

B2: anti-nsp9 VHH_(2nsp23) (VHH)
VHH: QVQLQESGGGLVQPGGSLRLSCAASGLAFSMYTMGWFRQAPGKEREFVAMIISSGDSTDYADSVKGRFTISRDNGKNTVYLQMDSLKPEDTAVYYCAAPKFRYYFSTSPGDFDSWGQGTQVTVSS
For B2, the binding result in the series with SARS-CoV-2 nsp9 is “binds”.
